Test [1] concerns the target T1, human complement protein C6 (human, UniProt P13671 22-934).
T1 construct: also called human C6; C6 antigen
The test can be described thus: C6-binding ELISA, A650 nm; sample 'PBS' (28 days at 37 C). The method, then:
For the serum stability assessment, samples of the purified candidate antibodies are normally incubated in mouse, human and cynomolgus serum at 37 C for 28 days and then tested in an antigen-binding ELISA. Since the anti-C6 antibodies are expected to bind to both human and cynomolgus C6 but not mouse C6, we anticipated that incubating in human or cynomolgus sera would reduce ELISA binding due to occupation of the antibody binding sites by C6 protein from the sera. Therefore, the chimeric and humanized antibodies were tested with human and mouse sera and with human sera from which the C6 protein has been depleted. […]
Binding ELISAs used Nunc Maxisorp 384-well plates, wells coated with C6, C5b,6 complex or C5 (Complement Technology Inc, TX) and goat anti-human IgG (Fab specific) peroxidase secondary antibodies (Sigma-Aldrich, A0293) for detection. For the thermal stability assay, IgG supernatants were diluted to their EC₈₀ concentration, incubated at different temperatures for 10 min and C6 binding measured by ELISA with the binding signal plotted against temperature. Kinetics of C6 binding were measured by capturing antibodies from supernatant samples using Protein G biosensors and performing a 20 min association step with 2.5 nM C6 and a 20 min dissociation step using the Octet RED96. […]
On the technique in general: ELISA stands for enzyme-linked immunosorbent assay.

The target of test [2] is T1, human complement protein C6. Kind of test: C6-binding ELISA, A650 nm; sample 'mouse serum' (28 days at 37 C). The procedure:
For the serum stability assessment, samples of the purified candidate antibodies are normally incubated in mouse, human and cynomolgus serum at 37 C for 28 days and then tested in an antigen-binding ELISA. Since the anti-C6 antibodies are expected to bind to both human and cynomolgus C6 but not mouse C6, we anticipated that incubating in human or cynomolgus sera would reduce ELISA binding due to occupation of the antibody binding sites by C6 protein from the sera. Therefore, the chimeric and humanized antibodies were tested with human and mouse sera and with human sera from which the C6 protein has been depleted. The C6-binding ELISA was then used to compare the binding abilities of the C601 antibodies that had been incubated in the 3 different sera to antibody samples that were incubated in PBS at 37 C or kept at 4 C (non-incubated).
The Uncle instrument (Unchained Labs) was used to monitor unfolding via intrinsic fluorescence and aggregation by static light scattering across a temperature gradient to obtain melting temperatures (Tₘ). […] Isoelectric points were determined by capillary isoelectric focusing using a PA800+ (Beckman Coulter). […]

For test [3] the target is unchanged. Kind of test: ELISA, C6-coated wells, purified antibody.
Test [4] has the same target. The test can be described thus: ELISA, expression supernatant, anti-human IgG Fc-specific detection. The method, then: The chimeric molecules, MoC601 HuG4K and MoC601 HuG1KFab, were tested for C6 binding in the form of expression supernatants. In this experiment, the human molecules were detected with an HRP-conjugated goat anti-human kappa chain reagent, which gave relative low signals. However, the binding of both chimeric molecules to C6 was confirmed. The EC₅₀ value for MoC601 HuG4K (0.43 nM) was higher than that of the mouse antibody (0.07 nM), though this was lower than in previous experiments. A further experiment was performed to find a more suitable anti-human antibody detection reagent. MoC601 HuG4K from expression supernatant was detected with three different secondary antibodies. Both anti-human IgG Fc-specific and Fab-specific detection gave higher signals than the anti-kappa chain reagent but the Fc-specific detection yielded a very low EC₅₀ (0.03 nM).

The target is the same in test [5]. Kind of test: BLI (Octet RED384), antibody on Protein G biosensors, C6 0.27-5 nM, 1:1 fit, experiment 2. The procedure: (§1) The binding of the purified chimeric molecules, MoC601 HuG4K and MoC601 HuG1KFab, was also confirmed by ELISA, where the anti-human IgG (Fab-specific) secondary reagent was used. The control mouse antibody bound as previously (EC₅₀ 0.11 nM). The EC₅₀ for purified MoC601 HuG4K (0.27 nM) was similar to that obtained for the MoC601 HuG4K supernatant sample above. […] The EC₅₀ value for the Fab molecule (0.48 nM) was higher than for the antibody, which would be expected since the Fab is unable to bind bivalently to the antigen on the well. A C6-binding assay was also set up on the Octet RED384 instrument. […] However, MoC601 MoG1K could be stably loaded onto anti-mouse Fc (AMC) biosensors. Concentrations of the mouse and chimeric antibodies were adjusted to give similar levels of loading on to the AMC and
Protein G biosensors respectively in subsequent experiments. There was no non-specific binding of C6 protein to unloaded sensors or sensors loaded with an isotype control antibody. […] The mouse and chimeric datasets were processed by subtracting the no antigen controls and the data were fitted to a 1:1 binding model. Binding curves giving Req/Rₘₐₓ ratios>90% or showing poor fitting were excluded from analysis. A second full kinetic experiment was performed with an adjusted concentration range (six points, 0.27-5 nM) and an extended dissociation step of 20 minutes.
In general terms: In BLI a coated tip is dipped into the sample, and binding shifts an interference pattern.

Test [6] shares this target. Kind of test: BLI (Octet RED384), antibody on Protein G biosensors, C6 0.16-10 nM, 1:1 fit, experiment 1. The procedure: as §1
Protein G biosensors respectively in subsequent experiments. There was no non-specific binding of C6 protein to unloaded sensors or sensors loaded with an isotype control antibody. A full kinetic experiment was run for purified MoC601 MoG1K and MoC601 HuG4K antibodies using seven concentrations of C6 (0.16-10 nM) and association and dissociation steps of 20 and 15 minutes respectively. The mouse and chimeric datasets were processed by subtracting the no antigen controls and the data were fitted to a 1:1 binding model. […]

The values that follow come from US20260125455A1 (CLEVELAND CLINIC FOUNDATION, published 2026).

Broadly, the EC50 is the concentration needed to bring the measured effect to its halfway point. What is called Kd is a measure of binding affinity in units of concentration. Lower therefore signals tighter binding. Usually kon stands for the rate constant with which the complex forms. Lower therefore signals slower complex formation.

T1 sequence (P13671 22-934 limits assumed): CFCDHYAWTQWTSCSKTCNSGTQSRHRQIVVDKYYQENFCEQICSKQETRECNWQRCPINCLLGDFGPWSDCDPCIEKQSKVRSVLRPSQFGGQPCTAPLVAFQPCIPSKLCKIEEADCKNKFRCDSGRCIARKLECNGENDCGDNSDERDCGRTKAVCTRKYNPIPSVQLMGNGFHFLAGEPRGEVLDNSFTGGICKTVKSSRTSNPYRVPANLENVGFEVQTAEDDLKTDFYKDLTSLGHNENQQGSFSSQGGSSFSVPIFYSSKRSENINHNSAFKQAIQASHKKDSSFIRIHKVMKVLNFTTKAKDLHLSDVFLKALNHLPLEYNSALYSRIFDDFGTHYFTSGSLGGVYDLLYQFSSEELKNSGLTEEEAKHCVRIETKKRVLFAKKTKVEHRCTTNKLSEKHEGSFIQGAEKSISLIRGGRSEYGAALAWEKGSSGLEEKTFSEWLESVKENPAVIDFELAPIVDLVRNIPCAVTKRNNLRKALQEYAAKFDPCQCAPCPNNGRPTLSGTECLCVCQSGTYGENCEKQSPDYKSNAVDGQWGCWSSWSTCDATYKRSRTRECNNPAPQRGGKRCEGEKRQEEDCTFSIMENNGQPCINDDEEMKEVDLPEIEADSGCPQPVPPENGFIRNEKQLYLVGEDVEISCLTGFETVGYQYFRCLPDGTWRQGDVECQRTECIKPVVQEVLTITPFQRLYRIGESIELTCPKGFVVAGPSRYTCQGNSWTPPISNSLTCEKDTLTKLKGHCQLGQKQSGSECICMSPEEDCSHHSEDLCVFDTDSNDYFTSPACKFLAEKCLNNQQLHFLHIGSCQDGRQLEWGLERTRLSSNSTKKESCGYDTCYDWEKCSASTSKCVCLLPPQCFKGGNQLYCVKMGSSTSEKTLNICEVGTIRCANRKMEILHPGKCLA

B1: C601HFKC4 HuG4K (antibody, human IgG4 S228P, kappa)
heavy: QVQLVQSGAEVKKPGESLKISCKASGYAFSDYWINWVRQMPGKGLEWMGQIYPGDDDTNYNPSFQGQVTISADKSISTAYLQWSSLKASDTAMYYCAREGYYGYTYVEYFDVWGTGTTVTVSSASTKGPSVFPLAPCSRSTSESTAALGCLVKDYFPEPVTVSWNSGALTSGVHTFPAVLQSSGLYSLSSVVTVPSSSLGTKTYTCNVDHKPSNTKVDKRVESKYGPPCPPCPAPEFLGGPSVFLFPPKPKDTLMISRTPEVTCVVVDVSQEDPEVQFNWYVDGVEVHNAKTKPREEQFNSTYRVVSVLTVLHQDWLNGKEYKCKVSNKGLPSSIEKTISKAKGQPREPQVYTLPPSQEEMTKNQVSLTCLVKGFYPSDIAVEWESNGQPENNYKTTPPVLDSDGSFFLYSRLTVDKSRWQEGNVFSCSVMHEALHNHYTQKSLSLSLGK
light: QIVLTQSPATLSLSPGERATLSCRASSSVSYLHWYQQKPGQSPRLWIYDTSKRATGIPARFSGSGSGTDYTLTISSLEPEDFAVYYCQQWTSNPLTFGQGTKLEIKRTVAAPSVFIFPPSDEQLKSGTASVVCLLNNFYPREAKVQWKVDNALQSGNSQESVTEQDSKDSTYSLSSTLTLSKADYEKHKVYACEVTHQGLSSPVTKSFNRGEC
notes: also called 3713; clone 3713
Turning to B1, the EC50 turned out to be 0.19 nM in test [1] and 0.15 nM in test [2].

B2: MoC601 HuG4K (chimeric C601 antibody) (antibody, human IgG4 S228P, kappa, V domains shown)
VH: QVQLQQSGAELVKPGASVKISCKASGYAFSDYWMNWVKQRPGKGLEWIGQIYPGDDDTNYNGKFKGKATLTADKSSSTAYMQLSSLTSEDSAVYFCAREGYYGYTYVEYFDVWGTGTTVTVSS
VL: QIVLTQSPAIMSVSPGEKVTLTCSASSSVSYMHWYQQKSGTSPKRWIYDTSKLASGVPARFSGSGSGTSYSLTISSMEAEDAATYYCQQWTSNPLTFGAGTKLELRR
notes: also called chimeric antibody; chimeric 1C9
For the molecule B2, the half-maximal effective concentration (EC50) stood at 0.2 nM in test [3] and 0.03 nM in test [4]. For the same molecule, the Kd in test [5] is 0.35 nM; in test [6], 0.36 nM. In addition, the kon in test [5] and in test [6] was 690000 M⁻¹ s⁻¹ each time.
